Laboratory results reported in patent US20130216547A1 (Regeneron, published 2013).

T1: human big-endothelin-1 (big-ET-1) (human)
T1 peptide: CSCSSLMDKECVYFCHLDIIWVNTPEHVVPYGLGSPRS

T2: small-ET-1 (endothelin-1) (human)
T2 construct: 21 amino acid peptide, same for mouse and human; also called human small-ET-1; EDN-1
T2 peptide: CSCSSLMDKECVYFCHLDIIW

T3: mouse big-ET-1 (mouse)
T3 construct: also called mBig-ET-1
T3 peptide: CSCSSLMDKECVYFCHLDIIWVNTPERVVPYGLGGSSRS


What was measured:
[1] = target: T1, human big-endothelin-1 (big-ET-1); experiment: cell-based or functional assay
[2] = target: T2, small-ET-1 (endothelin-1); experiment: SPR (Biacore T200), 37 C, mAb capture, peptide analyte
Procedure: (§1) Measurements were conducted on a T200 Biacore instrument (Biacore Life Sciences division of GE Healthcare, Piscataway, N.J.). […] Peptide binding was monitored for 3 min while dissociation of mAb-bound peptide was monitored for 4 min in HBST running buffer (0.01 M HEPES pH 7.4, 0.15 M NaCl, 3 mM EDTA, 0.005% v/v Surfactant P20). Kinetic association (kₐ) and dissociation (kd) rate constants were determined by processing and fitting the data to a 1:1 binding model using Scrubber 2.0 curve fitting software.

[3] = target: T1, human big-endothelin-1 (big-ET-1); experiment: as above
Procedure: as §1

mouse big-ET-1 [4] = target: T3, mouse big-ET-1; experiment: as above
Procedure: as §1

[5] = target: T1, human big-endothelin-1 (big-ET-1); experiment: cell-based or functional assay
mouse big-ET-1 [6] = target: T3, mouse big-ET-1; experiment: cell-based or functional assay
[7] = target: T1, human big-endothelin-1 (big-ET-1); experiment: SPR (Biacore T200), 37 C, mAb capture, peptide analyte
Procedure: as §1

[8] = target: T1, human big-endothelin-1 (big-ET-1); experiment: SPR (Biacore T200), 37 C, mAb capture, peptide analyte; human IgG4 format (H4H), captured on mouse anti-human Fc surface; Table 3
Procedure: as §1

[9] = target: T1, human big-endothelin-1 (big-ET-1); experiment: SPR (Biacore T200), 37 C, mAb capture, peptide analyte; hybridoma mAb (H2M, mouse Fc), captured on rabbit anti-mouse surface; Table 2
Procedure: as §1

Row | Binder | Blocking IC50(M), 10 nM hBig-ET-1 + 3 nM hECE1 [Trial 1]; 293/ETaR/NFAT-Luc luciferase [1] | binding result [2] | Kd [3] | T½ [3] | koff [3] | kon [3] | Kd (mouse big-ET-1 [4]) | T½ (mouse big-ET-1 [4]) | koff (mouse big-ET-1 [4]) | kon (mouse big-ET-1 [4]) | Blocking IC50(M), 10 nM hBig-ET-1 + 3 nM hECE1; 293/ETaR/NFAT-Luc luciferase [5] | Blocking IC50(M), 20 nM mBig-ET-1 + 5 nM mECE1; 293/ETaR/NFAT-Luc luciferase (mouse big-ET-1 [6]) | Kd [7] | Kd [8] | Kd [9]
1 | H2M6486N (antibody, V domains shown, Hybridoma antibody, human variable domains, mouse IgG2 Fc (prefix H2M)) VH: EVQLVESGGGLVKPGGSLRLSCAASGFTFSSYNMNWVRQAPGKGLEWVSSISSSSSYIYYADSVKGRFTISRDNAKNSLYLQMNSLRAEDTAVYYCARDNWNYSFDYWGQGTLVTVSS VL: not shown | 7.6e-09 M | no binding | 239 nM | 0.1 min | 0.0898 s⁻¹ | 380000 M⁻¹ s⁻¹ | 160 nM | 0.1 min | 0.135 s⁻¹ | 830000 M⁻¹ s⁻¹ |  |  |  |  | 
2 | H1M6492N (antibody, V domains shown, Hybridoma antibody, human variable domains, mouse constant domains; prefix H1M marks the Fc region (isotype not spelled out)) VH: EVQLVESGGGLVKPGGSLRVSCVASGFTFSNAWMTWVRQTPGKGLECVGRIKSRTDGGTVDYVAPVKGRFTISRDDSKNTLYLQMNSLKAEDTAVYYCRADLDYWGQGTLVTVSS VL: DVVMTQSPLSLPVSLGQPASISCRSSQSLVHSDGITYLNWFQQRPGQSPRRLIYKISNRDSGVPDRFSGSGSGTDFTLKFSRVEAEDVGVYFCMQGTHWPYTFGQGTKLEIK | 1.5e-09 M | no binding | 6.46 nM | 7 min | 0.0016 s⁻¹ | 248000 M⁻¹ s⁻¹ |  |  |  |  |  |  |  |  | 
3 | H1M6494N (antibody, V domains shown, Hybridoma antibody, human variable domains, mouse constant domains; prefix H1M marks the Fc region (isotype not spelled out)) VH: EVQLVESGGGLVKPGGSLRVSCVASGFTFSNAWMTWVRQTPGKGLECVGRIKSRTDGGTVDYVAPVKGRFTISRDDSKNTLYLQMNSLKAEDTAVYYCRADLDYWGQGTLVTVSS VL: DVVMTQSPLSLPVSLGQPASISCRSSQSLVHSDGITYLNWFQQRPGQSPRRLIYKISNRDSGVPDRFSGSGSGTDFTLKFSRVEAEDVGVYFCMQGTHWPYTFGQGTKLEIK | 1.5e-09 M | no binding | 7.07 nM | 7 min | 0.00169 s⁻¹ | 239000 M⁻¹ s⁻¹ |  |  |  |  |  |  |  |  | 
4 | H4H6334P (antibody, V domains shown, Human IgG4 Fc (prefix H4H)) VH: EVQLVESGGGLVKPGGSLRLSCAVSGFTFSIDWMIWVRQAPGTGLEWVGRIKRKTDGGTTDYAAPVKGRFTISRDDSKNTLYLQMNSLKTEDTAIYYCATGGFERVGQGTLVTVSS VL: not shown |  |  | 0.043 nM | 133 min | 8.68e-05 s⁻¹ | 2.02e+06 M⁻¹ s⁻¹ | 58 nM | 25 min | 0.000456 s⁻¹ | 7900 M⁻¹ s⁻¹ | 6.8e-10 M | > 1e-07 M | < 0.05 nM |  | 
5 | H4H6328P (antibody, V domains shown, Human IgG4 Fc (prefix H4H)) VH: QVQLVESGGGVVQPGRSLRLSCAASGFTFSSYGMHWVRQAPGKGLEWVAVIWYDGSDKYYADSVKGRFTISRDNSKNTLYLQMNSLRAEDTAVYYCARDGYGSRGNYFDYWGQGTLVTVSS VL: not shown |  | no binding | ≤ 0.00634 nM | 11600 min | ≤ 1e-06 s⁻¹ | 158000 M⁻¹ s⁻¹ |  |  |  |  | > 1e-07 M | > 1e-07 M | < 0.05 nM |  | 
6 | H4H6495N (antibody, V domains shown, Human IgG4 Fc version of 6495N; also called 6495N (human IgG4 format)) VH: QVQLVESGGGVVQPGRSLRLSCAASGFTFRSYGMHWVRQAPGKGLEWVAVIWYDGSDKYYADSVKGRFTISRDNSKNTLYLQMNSLRAEDTAVYFCAKDEYKTRGGYFDYWGQGTLVTVSS VL: not shown |  |  |  | 0.3 min | 0.0399 s⁻¹ | 606000 M⁻¹ s⁻¹ |  |  |  |  | 1.33e-08 M |  |  | 65.9 nM | 
7 | H2M6495N (antibody, V domains shown, Hybridoma antibody, human variable domains, mouse IgG2 Fc (prefix H2M)) VH: QVQLVESGGGVVQPGRSLRLSCAASGFTFRSYGMHWVRQAPGKGLEWVAVIWYDGSDKYYADSVKGRFTISRDNSKNTLYLQMNSLRAEDTAVYFCAKDEYKTRGGYFDYWGQGTLVTVSS VL: not shown | 4.3e-09 M | no binding |  | 11600 min | ≤ 1e-06 s⁻¹ | 117000 M⁻¹ s⁻¹ |  |  |  |  |  |  | < 0.05 nM |  | ≤ 0.00853 nM
